Measured values taken from publication PMC6131487.

Tests used:
[1] = biological target: UL25 of HSV-2 (component of the capsid-vertex-specific component, CVSC) (herpes simplex virus 2 strain MS) (UniProt P89448); assay: cryo-EM structure; HSV-2 (MS strain) C-capsids assembled in infected Vero cells, detergent-treated (1% NP-40) and purified on sucrose gradients, in PBS; icosahedral plus block-based reconstruction, 3.75 Å overall (CVSC map 4.3 Å, CVSC head about 10 Å)
[2] = biological target: small capsid protein VP26 of HSV-2 (herpes simplex virus 2 strain MS) (UniProt P89458); assay: as above

Substance | stoichiometry N [1] | stoichiometry N [2]
UL25 of HSV-2 (component of the capsid-vertex-specific component, CVSC) (from UniProt P89448 1-585) (natural protein) | 2 | –
small capsid protein VP26 of HSV-2 (from UniProt P89458 1-112) (natural protein) | – | 6
